Human cathepsin B
in vitro protease activity measurements (zRR-AMC cleavage) (z-VRPR-FMK): also abrogated cathepsin B activity even though slightly less efficient
in vitro protease activity measurements (zRR-AMC cleavage) (probe 5 (FITC-LRSR-AOMK)): also abrogated cathepsin B activity even though slightly less efficient

Reference: patent US20160327558
